In paper PMC4877050:

Target: wild-type Bcl-xL (mouse full-length, adenovirus-expressed) (mouse) (UniProt Q64373)
Test: native gel or EMSA; Blue Native PAGE (4-16% Bis-Tris) of the mitochondrial fraction of adenovirus-transduced TKPTS cells, extracted with 1% n-dodecyl-β-D-maltoside; blots probed for Bcl-xL, then Bax

wild-type Bcl-xL (mouse full-length, adenovirus-expressed) (from UniProt Q64373-1 1-233) (natural protein)
stoichiometry N: 2
